Experimental data taken from patent US20250270343A1 (Alector, published 2025).

How the values were obtained:
[1] = target: T1, soluble human GPNMB (recombinant extracellular domain) (human, UniProt Q14956 23-498); assay: SPR Carterra, Ab immobilized
T1 construct: also called huGPNMB; recombinant human GPNMB extracellular domain; not shown: C-terminal polyhistidine or Avi-His tag
T1 sequence: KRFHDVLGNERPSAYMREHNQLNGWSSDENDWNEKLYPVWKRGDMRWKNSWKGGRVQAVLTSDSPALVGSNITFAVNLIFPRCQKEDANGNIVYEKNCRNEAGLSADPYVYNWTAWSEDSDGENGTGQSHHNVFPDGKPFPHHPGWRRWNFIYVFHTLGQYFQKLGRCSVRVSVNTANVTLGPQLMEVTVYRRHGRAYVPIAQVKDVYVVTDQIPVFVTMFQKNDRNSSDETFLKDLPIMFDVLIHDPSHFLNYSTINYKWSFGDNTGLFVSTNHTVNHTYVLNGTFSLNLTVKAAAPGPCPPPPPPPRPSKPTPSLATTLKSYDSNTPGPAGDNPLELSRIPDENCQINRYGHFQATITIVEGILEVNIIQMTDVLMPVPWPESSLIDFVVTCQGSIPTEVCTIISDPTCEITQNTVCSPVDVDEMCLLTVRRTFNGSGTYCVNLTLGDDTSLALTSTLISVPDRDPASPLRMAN
Outline: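 Antibodies amine-coupled on HC200M chip in a 96-spot array; recombinant GPNMB ECD analytes injected at 2.5–600 nM, lowest to highest, without regeneration. Running buffer HBS-EP+ with 0.5 mg/ml BSA; two buffer blanks between species series. Kinetics fitted to yield affinity estimates.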

[2] = target: T2, full-length untagged human GPNMB expressed on cells (human, UniProt Q14956 23-572); assay: cell-based or functional assay
T2 sequence: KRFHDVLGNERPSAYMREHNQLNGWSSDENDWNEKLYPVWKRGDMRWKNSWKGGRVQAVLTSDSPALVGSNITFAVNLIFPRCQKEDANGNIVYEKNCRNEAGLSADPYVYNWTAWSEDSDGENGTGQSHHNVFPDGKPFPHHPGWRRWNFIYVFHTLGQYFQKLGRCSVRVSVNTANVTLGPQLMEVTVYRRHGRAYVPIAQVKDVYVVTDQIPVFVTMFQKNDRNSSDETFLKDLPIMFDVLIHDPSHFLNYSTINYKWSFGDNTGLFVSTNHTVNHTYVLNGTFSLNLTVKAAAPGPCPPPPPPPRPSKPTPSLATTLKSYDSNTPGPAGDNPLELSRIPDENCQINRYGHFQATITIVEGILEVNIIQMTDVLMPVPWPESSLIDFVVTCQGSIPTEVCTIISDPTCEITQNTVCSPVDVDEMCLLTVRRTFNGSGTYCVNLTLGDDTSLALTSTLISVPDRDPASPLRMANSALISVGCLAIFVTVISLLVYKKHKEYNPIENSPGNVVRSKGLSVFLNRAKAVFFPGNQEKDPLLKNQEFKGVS

[3] = target: T3, mouse GPNMB endogenously expressed on B16F10 cells (mouse, UniProt Q99P91 23-574); assay: FACS, B16F10 cells
T3 construct: whole, on cells; also called moGPNMB
T3 sequence (looked up): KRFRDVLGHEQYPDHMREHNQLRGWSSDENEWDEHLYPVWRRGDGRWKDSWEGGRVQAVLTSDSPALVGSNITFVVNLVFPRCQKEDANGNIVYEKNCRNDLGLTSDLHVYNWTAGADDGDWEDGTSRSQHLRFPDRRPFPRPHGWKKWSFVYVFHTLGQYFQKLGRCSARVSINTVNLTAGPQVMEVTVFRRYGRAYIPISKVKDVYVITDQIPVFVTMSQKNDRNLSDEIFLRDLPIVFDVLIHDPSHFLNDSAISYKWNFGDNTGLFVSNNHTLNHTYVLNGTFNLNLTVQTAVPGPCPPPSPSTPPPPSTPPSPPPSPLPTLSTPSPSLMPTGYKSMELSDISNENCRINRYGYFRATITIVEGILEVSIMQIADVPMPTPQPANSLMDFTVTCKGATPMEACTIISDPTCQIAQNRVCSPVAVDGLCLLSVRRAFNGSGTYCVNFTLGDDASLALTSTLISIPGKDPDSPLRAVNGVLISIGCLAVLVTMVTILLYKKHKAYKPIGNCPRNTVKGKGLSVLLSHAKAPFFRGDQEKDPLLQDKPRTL
Outline: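 Cells (100,000/well) stained 30 min on ice with anti-GPNMB antibody in PBS/2% FBS/2 mM EDTA, then 1 μg/ml APC anti-human IgG for 30 min on ice. Binding read by flow cytometry as MFI.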

[4] = target: T3, mouse GPNMB endogenously expressed on …; assay: FACS on B16F10 mouse melanoma cells (endogenous mouse GPNMB); single antibody concentration (not given); APC anti-human IgG secondary; MFI as fold over background
Description: Recombinant anti-GPNMB antibodies of the present disclosure were examined for their ability to bind human and/or mouse GPNMB expressed on Freestyle293-huGPNMB+ or B16F10 cells, respectively. B16F10 cells are a murine melanoma cell line from a C57BL/6J mouse that endogenously express high levels of mouse GPNMB. The antibodies were also tested for their ability to bind to a human macrophage cell line (U937 cells) engineered to express human GPNMB. Cells were harvested, plated at 100,000 cells/well in a 96-well round bottom plate, and incubated in 100 μl FACS buffer (PBS containing 2% FBS, 2 mM EDTA) containing anti-GPNMB monoclonal antibodies of the present disclosure for 30 minutes on ice. Cells were then washed and incubated in 100 ul FACS buffer containing 1 μg/ml APC-conjugated anti-human IgG secondary antibody for 30 minutes in ice. Cells were washed twice in cold FACS buffer and acquired on a BD FACS Canto. Data analysis and calculation of MFI values was performed with FlowJo (TreeStar) software version 10.0.7. […]

Binder | Kd [1] [nM] | koff [1] [s⁻¹] | kon [1] [M⁻¹ s⁻¹] | CD40 (FoB) [2] [FoB] | CD80 (FoB) [2] [FoB] | GCase (FoB) [2] [FoB] | PDL1 (FoB) [2] [FoB] | MFI fold over background [3] [fold] | binding result [4]
anti-GPNMB antibody GPN-07 (antibody, human IgG1, V domains shown, chimeric) VH: QVQLQQSGAEQVKPGASVKLSCKASGYTFTSYYMYWVKQRPGQGLEWIGEINPSNGGTYFNEKFKSKATLTVDKSSSTAYMHLSSLTSEDSAVYYCTRGGTYYAYWGQGTLVTVSA VL: DIQMTQSPSSLSASLGERVSLTCRASQEMSGHLSWLQQKPDGTIKRLIYAASTLDSGVPKRFSGSRSGSDYSLTISSLESEDFADYYCLQYASYPYTFGGGTKLEIK | 16.6 | 0.00029 | 19000 | 1.39 | 1.29 | 2.13 | 1.67 | 1 | no binding
anti-GPNMB antibody GPN-09 (antibody, human IgG1, V domains shown, chimeric) VH: QVQLQQSGAELVKPGASVKLSCKASGYTFTSYYIYWVKQRPGQGLEWIGEINPSNGGTYFNEKFKNKATLTVDKSSSTAYMQLSSLTSEDSAVYYCTRGGNYYAYWGQGTLVTVSA VL: DIQMTQSPSSLSASLGERVSLTCRASQEISGHLGWLQQKPDGTIKRLIYAALTLDSGVPKRFSGSRSGSDYSLTISSLESEDFADYYCLQYASYPYTFGGGTKLEIK | 9 | 0.00011 | 12000 | 1.49 | 1.19 | 1.26 | 1.5 | 1 | no binding
anti-GPNMB antibody GPN-37 (antibody, human IgG1, V domains shown, chimeric) VH: EVQLVESGGGLVQPGRSLKLSCAASGFTFSSKSGMAWVRQAPTKGLEWVASISNGGGDTYYRDSVKGRFTISRDNAKNTQYLQMDSLRPEDTATYYCARHRDYGYDAYFDYWGQGVMVTVSS VL: DIQMTQSPASLSASLGETVTIECLASEDIYSSLAWYQQKPGKSPQLLIYDASSLQDGVPSRFSGSESGTQYSLEINSLQSEDAATYFCQQHHDYPYTFGAGTKLELK | 1 | 0.00011 | 110000 |  |  | 1.01 |  | 0.8 | no binding
anti-GPNMB antibody GPN-34 (antibody, human IgG1, V domains shown, chimeric) VH: EVKLVESGGGLVQPGRSLKLSCAASGFNFYDYWMGWVRQAPGKGLEWIGEINKDSRTINYTPFLKDRFTISRDNAQNTLYLQMSKLGSEDTAIYYCAREGRVPFDYWGQGVMVTVSS VL: DIQMTQSPSSMSVSLGDTVTIPCRASQDVGSYVNWFQQKPGKSPRHMIYRATNLADGVPSRFSGSRSGADYSLTISSLESEDVADYHCQQYAEYPLTFGSGTKLEIK | 0.4 | 6.3e-05 | 190000 | 1.52 | 1.36 | 1.76 | 1.56 | 1.1 | no binding
anti-GPNMB antibody GPN-03 (antibody, human IgG1, V domains shown, chimeric) VH: QVQLQQSGPELVKPGASVKLSCKASGYTFTNYYMYWVKQRPGQGLEWIGEINPRNGGTNFNEKFKSKATLTVDKSSSTAYMQLSSLTFEDSAVYYCTTGLAYWGQGTLVTVSA VL: DVVMTQTPLSLPVSLGDQASISCRSSQSLVHSDGNTYLHWYLQKPGQSPKLLIYKVSTRFSGVPDRFSGSGSGTDFTLKISRVEAEDLGVYFCSQSTHVPWTFGGGTKLEIK | 29.6 | 0.0019 | 100000 | 1.45 | 1.4 | 1.47 | 1.32 | 1.1 | no binding
anti-GPNMB antibody GPN-06 (antibody, human IgG1, V domains shown, chimeric) VH: QVQLQQSGAELVKPGASVKLSCKASGYTFTNYYMYWVKQRPGQGLEWIGEINTRNGGTNFNEKFKSKATLTVDKSSSTAYMQLSSLTSEDSAVYYCTTGFAYWGQGTLVTVSA VL: DIQMTQSPASLSASVGETVTITCRASENIYSYLVWYQQNQGKSPQLLVYNAKTLAEGVPSRFSGSGSGTQFSLKINSLQPEDFGTYYCQHHYGTPFTFGSGTKLEIK | 73.9 | 0.0032 | 54000 | 1.44 | 1.38 | 1.58 | 1.61 | 1 | no binding
anti-GPNMB antibody GPN-08 (antibody, human IgG1, V domains shown, chimeric) VH: QVQLQQPGAELVKPGASVKLSCRASGYTFTSYWLHWVKQRPGQGLEWIGEINPSDGRTNYIEKVKTKATLTVDKSSSTAYMQLSSLTSEDSAVYYCARSGGNYAWFAYWGQGTLVTVSA VL: DIVMTQSHKFMSTSVGDRVSITCKASQDVSPSVAWYQQRPGQSPKLLIYSASYRYTGVPDRFTGSGSGTDFTFTISSVQAEDLAVYYCQQHYSIPLTFGAGTKLELK | 36 | 0.0014 | 40000 | 1.35 | 1.29 | 1.18 | 1.59 | 1 | no binding
